Reference: article PMC10200060, “Inhibition of DAMP actions in the tumoral microenvironment using lactoferrin-glycyrrhizin conjugate for glioblastoma therapy” (Biomaterials Research, 2023)

T1: human recombinant HMGB1 protein (Homo sapiens, UniProt P09429)
T1 construct: purchased Abcam
T1 sequence (P09429 1-215): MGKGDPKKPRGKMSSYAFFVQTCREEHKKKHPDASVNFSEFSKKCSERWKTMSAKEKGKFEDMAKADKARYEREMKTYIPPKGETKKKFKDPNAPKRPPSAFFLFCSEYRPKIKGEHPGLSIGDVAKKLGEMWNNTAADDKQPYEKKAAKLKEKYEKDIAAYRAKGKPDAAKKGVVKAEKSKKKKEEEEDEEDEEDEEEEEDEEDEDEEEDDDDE

B1: Lf-GL (1:4): lactoferrin-glycyrrhizin conjugate, ratio 1:4 (conjugate, UniProt P24627 20-708, looked up)
Lactotransferrin: APRKNVRWCTISQPEWFKCRRWQWRMKKLGAPSITCVRRAFALECIRAIAEKKADAVTLDGGMVFEAGRDPYKLRPVAAEIYGTKESPQTHYYAVAVVKKGSNFQLDQLQGRKSCHTGLGRSAGWIIPMGILRPYLSWTESLEPLQGAVAKFFSASCVPCIDRQAYPNLCQLCKGEGENQCACSSREPYFGYSGAFKCLQDGAGDVAFVKETTVFENLPEKADRDQYELLCLNNSRAPVDAFKECHLAQVPSHAVVARSVDGKEDLIWKLLSKAQEKFGKNKSRSFQLFGSPPGQRDLLFKDSALGFLRIPSKVDSALYLGSRYLTTLKNLRETAEEVKARYTRVVWCAVGPEEQKKCQQWSQQSGQNVTCATASTTDDCIVLVLKGEADALNLDGGYIYTAGKCGLVPVLAENRKSSKHSSLDCVLRPTEGYLAVAVVKKANEGLTWNSLKDKKSCHTAVDRTAGWNIPMGLIVNQTGSCAFDEFFSQSCAPGADPKSRLCALCAGDDQGLDKCVPNSKEKYYGYTGAFRCLAEDVGDVAFVKNDTVWENTNGESTADWAKNLNREDFRLLCLDGTRKPVTEAQSCHLAVAPNHAVVSRSDRAAHVKQVLLHQQALFGKNGKNCPDKFCLFKSETKNLLFNDNTECLAKLGGRPTYEEYLGTEYVTAIANLKKCSTSPLLEACAFLTR
modifications: glycyrrhizin conjugate 1:4
B2: Lf-GL (1:15): lactoferrin-glycyrrhizin conjugate, ratio 1:15 (conjugate, UniProt P24627 20-708, looked up)
Lactotransferrin: B1 Lactotransferrin
modifications: glycyrrhizin conjugate 1:15

Key:
[1] = target: T1, human recombinant HMGB1 protein; assay: SPR binding affinity against HMGB1; settings: SPR, HMGB1 immobilized; for Ka, association rate constant / Kd, dissociation rate constant: PBS pH 7.4, room temperature
Procedure: To confirm the binding affinity of Lf-GL to HMGB1, Surface Plasmon Resonance (SPR) was conducted at WoojungBSC (Korea). The Reichert SR7500DC system (Reichert technologies, NA, USA) and Scrubber2 software (Biologic software, FRA) were used, and a CMDH chip (Cat #: 13,206,066, Reichert technologies) was used for immobilization of the human recombinant HMGB1 protein (Abcam). HMGB1 protein was used as a ligand, and the analytes were HMGB1 antibody (Abcam), GL, Lf and Lf-GL conjugate. The immobilization buffer was S.A. (10 × 10^–3 M, pH 4.5), and the running buffer was PBS (pH 7.4). The flow rate of the analyte was 30 μL min^−1. The association and dissociation time were 3 min each, and measurements were conducted at room temperature. Results are expressed in response units (RU) over time.
Fig. S5. Binding affinity against HMGB1. Surface Plasmon Resonance (SPR) was conducted at WoojungBSC (Korea). The Reichert SR7500DC system (Reichert technologies, NA, USA) and Scrubber2 software(Biologic software, FRA) were used and the CMDH chip (Cat #: 13206066, Reichert technologies) was used for immobilization of the human recombinant HMGB1 protein (Abcam). HMGB1 protein was used as ligand and analytes were HMGB1 antibody (Abcam), GL, Lf and Lf-GL conjugate. Immobilization buffer was 10 mM S.A. (pH 4.5) and running buffer was 1× PBS. The flow rate of the analyte was 30 μL min^-1. The association and dissociation time were 3 min each and conducted at room temperature. Results are expressed in response units (RU) over time.

U87MG spheroid = assay: GBM spheroid growth inhibition; format: cell-based, human; settings: GL equivalent 50 µM, day 6 (control 294%)
Procedure: Fig. S8. GBM spheroid growth inhibition of Lf-GL. To form U87MG spheroid, cells were seeded at density of 1X10^5 cells in concave mold (StemFIT 3D; MICROFIT, Korea). After spheroids were formed, they were transferred to 24-well plate coated with 2% agarose gel. The constructed spheroids were treated with conditioned medium at 2 days interval after a washing step with PBS. (a) Morphology of U87MG spheroid treated with Lf-GL of GL equivalent concentration of 50 µM on day 0, 2, 4 and 6, respectively. Scale bar: 200 µm (b) GBM spheroids time-related volume after treated with Lf-GL of GL equivalent concentration of 50 µM. Data were expressed as mean ± S.E.M (n=9). **P <0.01 versus Control.

Row | Molecule | KD, equilibrium dissociation constant (KD = Kd Ka^−1) [1] [nM] | Ka, association rate constant [1] | Kd, dissociation rate constant [1] | Spheroid volume increase at day 6 compared to day 0 (U87MG spheroid) [%]
1 | B1 | 595 ± 5 | (2.66±0.02)·10^3 M^-1s^-1 | 0.001584 ± 8e-06 s⁻¹ | 185
2 | B2 | 32.3 ± 0.2 | (2.99±0.02)·10^4 M^-1s^-1 | (9.65±0.04)·10^-4 M^-1s^-1 | 179
